Measured values as given in patent publication US9410182B2, “Phosphatase coupled glycosyltransferase assay” (Bio-Techne Corporation, priority 2010, dated 2016).

Assay: Transferase activity of Fut7 on 3′-sialyl-N-acetyllactosamine assayed with CD39L3
Format: biochemical
Details: 0.1 μg CD39L3, 40 μM GDP-fucose, 40 μM 3′-sialyl-N-acetyllactosamine, 37° C., 30 minutes
From the text: The GDP-Fucose, UDP-Glucose, CMP-NeuAc, CMP, UDP and GDP used in the following experiments were obtained from Sigma-Aldrich (St Louis, Mo.). The recombinant human Fut7, ST6Gal1, CD73, CD39L3, non-specific alkaline phosphatase TNAP, recombinant Clostridium Difficile toxin B (TcdB) containing the glycosyltransferase domain and Malachite Green Phosphate Detection Kit were obtained from R&D Systems (Minneapolis, Minn.). The 3′-Sialyl-N-acetyllactosamine was obtained from V-LABS, Inc (Convington, La.). Unless otherwise specified, each glycosyltransferase reaction was performed in 50 μL of a buffer of 25 mM Tris, 150 mM NaCl, 5 mM MgCl2 and 5 mM MnCl2, at pH 7.5 in a 96-well plate at room temperature for 20 minutes. To determine kinetic parameters of each glycosyltransferase, multiple reactions with varied amounts of either glycosyltransferase or substrates were preceded simultaneously in the presence of fixed amounts of all other components, including a phosphatase. A well containing all components except glycosyltransferase served as a blank control for each example. […] The plate was then read at 620 nm with a multi-well plate reader.
The only known function of fucosyltransferase 7 (Fut7) is the biosynthesis of sialy Lewis X epitope in leukocytes and high endothelial venule cells. […] The reaction was then stopped and detected by malachite reagents. […]

B1: Fut7: recombinant human fucosyltransferase 7 from R&D Systems (protein, UniProt Q11130 1-342, looked up)
Alpha-(1,3)-fucosyltransferase …: MNNAGHGPTRRLRGLGVLAGVALLAALWLLWLLGSAPRGTPAPQPTITILVWHWPFTDQPPELPSDTCTRYGIARCHLSANRSLLASADAVVFHHRELQTRRSHLPLAQRPRGQPWVWASMESPSHTHGLSHLRGIFNWVLSYRRDSDIFVPYGRLEPHWGPSPPLPAKSRVAAWVVSNFQERQLRARLYRQLAPHLRVDVFGRANGRPLCASCLVPTVAQYRFYLSFENSQHRDYITEKFWRNALVAGTVPVVLGPPRATYEAFVPADAFVHVDDFGSARELAAFLTGMNESRYQRFFAWRDRLRVRLFTDWRERFCAICDRYPHLPRSQVYEDLEGWFQA
With B1 the “specific activity of the enzyme” value was 12.6 pmol/min/µg.
